Results taken from IntAct's records for PubMed 15156152.

B1: Integrin beta-5 (Homo sapiens), P18084 (parent)
chain: MPRAPAPLYACLLGLCALLPRLAGLNICTSGSATSCEECLLIHPKCAWCSKEDFGSPRSITSRCDLRANLVKNGCGGEIESPASSFHVLRSLPLSSKGSGSAGWDVIQMTPQEIAVNLRPGDKTTFQLQVRQVEDYPVDLYYLMDLSLSMKDDLDNIRSLGTKLAEEMRKLTSNFRLGFGSFVDKDISPFSYTAPRYQTNPCIGYKLFPNCVPSFGFRHLLPLTDRVDSFNEEVRKQRVSRNRDAPEGGFDAVLQAAVCKEKIGWRKDALHLLVFTTDDVPHIALDGKLGGLVQPHDGQCHLNEANEYTASNQMDYPSLALLGEKLAENNINLIFAVTKNHYMLYKNFTALIPGTTVEILDGDSKNIIQLIINAYNSIRSKVELSVWDQPEDLNLFFTATCQDGVSYPGQRKCEGLKIGDTASFEVSLEARSCPSRHTEHVFALRPVGFRDSLEVGVTYNCTCGCSVGLEPNSARCNGSGTYVCGLCECSPGYLGTRCECQDGENQSVYQNLCREAEGKPLCSGRGDCSCNQCSCFESEFGKIYGPFCECDNFSCARNKGVLCSGHGECHCGECKCHAGYIGDNCNCSTDISTCRGRDGQICSERGHCLCGQCQCTEPGAFGEMCEKCPTCPDACSTKRDCVECLLLHSGKPDNQTCHSLCRDEVITWVDTIVKDDQEAVLCFYKTAKDCVMMFTYVELPSGKSNLTVLREPECGNTPNAMTILLAVVGSILLVGLALLAIWKLLVTIHDRREFAKFQSERSRARYEMASNPLYRKPISTHTVDFTFNKFNKSYNGTVD

Variants of: B1
Conditions: with myo10_mouse Myo10, F8VQB6
myo10_mouse Myo10, F8VQB6, sequence (F8VQB6 whole entry): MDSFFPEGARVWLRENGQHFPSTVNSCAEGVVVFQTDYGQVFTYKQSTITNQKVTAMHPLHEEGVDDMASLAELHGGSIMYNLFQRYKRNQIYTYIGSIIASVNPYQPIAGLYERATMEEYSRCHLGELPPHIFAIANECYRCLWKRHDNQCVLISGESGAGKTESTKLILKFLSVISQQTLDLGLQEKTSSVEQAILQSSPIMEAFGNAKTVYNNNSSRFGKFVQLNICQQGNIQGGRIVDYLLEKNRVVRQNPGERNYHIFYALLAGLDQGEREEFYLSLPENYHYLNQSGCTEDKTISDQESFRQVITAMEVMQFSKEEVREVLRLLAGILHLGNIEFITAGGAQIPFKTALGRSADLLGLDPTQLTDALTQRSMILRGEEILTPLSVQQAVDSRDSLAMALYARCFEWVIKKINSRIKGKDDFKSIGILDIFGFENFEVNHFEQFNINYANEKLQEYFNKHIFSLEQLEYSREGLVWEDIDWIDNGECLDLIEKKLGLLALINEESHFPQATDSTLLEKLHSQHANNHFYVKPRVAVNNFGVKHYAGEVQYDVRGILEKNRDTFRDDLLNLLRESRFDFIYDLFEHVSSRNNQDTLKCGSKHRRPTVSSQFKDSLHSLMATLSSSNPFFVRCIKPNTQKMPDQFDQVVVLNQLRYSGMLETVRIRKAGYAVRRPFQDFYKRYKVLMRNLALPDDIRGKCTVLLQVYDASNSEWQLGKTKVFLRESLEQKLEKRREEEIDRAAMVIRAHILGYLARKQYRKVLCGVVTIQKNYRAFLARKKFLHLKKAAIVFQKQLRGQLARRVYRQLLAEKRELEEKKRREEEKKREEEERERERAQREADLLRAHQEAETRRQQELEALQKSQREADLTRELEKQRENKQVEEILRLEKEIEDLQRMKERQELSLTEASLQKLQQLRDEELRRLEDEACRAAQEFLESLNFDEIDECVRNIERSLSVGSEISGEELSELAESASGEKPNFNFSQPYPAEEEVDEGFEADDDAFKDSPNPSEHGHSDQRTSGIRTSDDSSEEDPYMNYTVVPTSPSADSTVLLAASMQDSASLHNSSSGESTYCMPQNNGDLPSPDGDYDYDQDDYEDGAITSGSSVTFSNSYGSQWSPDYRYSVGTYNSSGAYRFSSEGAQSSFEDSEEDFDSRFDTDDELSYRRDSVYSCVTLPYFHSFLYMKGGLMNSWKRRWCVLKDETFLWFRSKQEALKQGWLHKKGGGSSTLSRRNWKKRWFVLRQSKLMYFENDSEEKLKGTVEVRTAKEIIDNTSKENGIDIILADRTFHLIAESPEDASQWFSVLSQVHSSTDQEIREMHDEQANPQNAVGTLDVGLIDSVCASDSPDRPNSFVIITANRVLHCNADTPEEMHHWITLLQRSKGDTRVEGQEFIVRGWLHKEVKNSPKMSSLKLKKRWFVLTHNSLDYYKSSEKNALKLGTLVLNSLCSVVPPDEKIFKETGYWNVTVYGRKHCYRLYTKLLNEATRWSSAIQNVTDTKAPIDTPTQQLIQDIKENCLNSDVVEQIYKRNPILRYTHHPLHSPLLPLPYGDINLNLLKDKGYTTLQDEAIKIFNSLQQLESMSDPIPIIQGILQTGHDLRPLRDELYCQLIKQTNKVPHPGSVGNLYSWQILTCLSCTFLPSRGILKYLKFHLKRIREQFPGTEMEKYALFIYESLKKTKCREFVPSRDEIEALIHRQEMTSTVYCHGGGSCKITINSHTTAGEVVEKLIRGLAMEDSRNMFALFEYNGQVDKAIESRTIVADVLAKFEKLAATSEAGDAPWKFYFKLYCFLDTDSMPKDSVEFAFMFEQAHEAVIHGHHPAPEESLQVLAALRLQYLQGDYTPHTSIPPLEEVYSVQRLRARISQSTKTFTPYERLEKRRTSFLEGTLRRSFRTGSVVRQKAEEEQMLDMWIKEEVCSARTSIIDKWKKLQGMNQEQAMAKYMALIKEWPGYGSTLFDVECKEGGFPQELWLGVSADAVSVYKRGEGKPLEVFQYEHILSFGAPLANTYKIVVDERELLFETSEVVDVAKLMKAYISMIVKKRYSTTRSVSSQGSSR

| effect of a mutation on the interaction | Variant |
| --- | --- |
| disrupting interaction | Y774A |
| decreasing interaction | L773A |
| disrupting interaction | P772A |

Variants of: B1
Conditions: with myo10_bovin MYO10, P79114
myo10_bovin MYO10, P79114, sequence (P79114 whole entry): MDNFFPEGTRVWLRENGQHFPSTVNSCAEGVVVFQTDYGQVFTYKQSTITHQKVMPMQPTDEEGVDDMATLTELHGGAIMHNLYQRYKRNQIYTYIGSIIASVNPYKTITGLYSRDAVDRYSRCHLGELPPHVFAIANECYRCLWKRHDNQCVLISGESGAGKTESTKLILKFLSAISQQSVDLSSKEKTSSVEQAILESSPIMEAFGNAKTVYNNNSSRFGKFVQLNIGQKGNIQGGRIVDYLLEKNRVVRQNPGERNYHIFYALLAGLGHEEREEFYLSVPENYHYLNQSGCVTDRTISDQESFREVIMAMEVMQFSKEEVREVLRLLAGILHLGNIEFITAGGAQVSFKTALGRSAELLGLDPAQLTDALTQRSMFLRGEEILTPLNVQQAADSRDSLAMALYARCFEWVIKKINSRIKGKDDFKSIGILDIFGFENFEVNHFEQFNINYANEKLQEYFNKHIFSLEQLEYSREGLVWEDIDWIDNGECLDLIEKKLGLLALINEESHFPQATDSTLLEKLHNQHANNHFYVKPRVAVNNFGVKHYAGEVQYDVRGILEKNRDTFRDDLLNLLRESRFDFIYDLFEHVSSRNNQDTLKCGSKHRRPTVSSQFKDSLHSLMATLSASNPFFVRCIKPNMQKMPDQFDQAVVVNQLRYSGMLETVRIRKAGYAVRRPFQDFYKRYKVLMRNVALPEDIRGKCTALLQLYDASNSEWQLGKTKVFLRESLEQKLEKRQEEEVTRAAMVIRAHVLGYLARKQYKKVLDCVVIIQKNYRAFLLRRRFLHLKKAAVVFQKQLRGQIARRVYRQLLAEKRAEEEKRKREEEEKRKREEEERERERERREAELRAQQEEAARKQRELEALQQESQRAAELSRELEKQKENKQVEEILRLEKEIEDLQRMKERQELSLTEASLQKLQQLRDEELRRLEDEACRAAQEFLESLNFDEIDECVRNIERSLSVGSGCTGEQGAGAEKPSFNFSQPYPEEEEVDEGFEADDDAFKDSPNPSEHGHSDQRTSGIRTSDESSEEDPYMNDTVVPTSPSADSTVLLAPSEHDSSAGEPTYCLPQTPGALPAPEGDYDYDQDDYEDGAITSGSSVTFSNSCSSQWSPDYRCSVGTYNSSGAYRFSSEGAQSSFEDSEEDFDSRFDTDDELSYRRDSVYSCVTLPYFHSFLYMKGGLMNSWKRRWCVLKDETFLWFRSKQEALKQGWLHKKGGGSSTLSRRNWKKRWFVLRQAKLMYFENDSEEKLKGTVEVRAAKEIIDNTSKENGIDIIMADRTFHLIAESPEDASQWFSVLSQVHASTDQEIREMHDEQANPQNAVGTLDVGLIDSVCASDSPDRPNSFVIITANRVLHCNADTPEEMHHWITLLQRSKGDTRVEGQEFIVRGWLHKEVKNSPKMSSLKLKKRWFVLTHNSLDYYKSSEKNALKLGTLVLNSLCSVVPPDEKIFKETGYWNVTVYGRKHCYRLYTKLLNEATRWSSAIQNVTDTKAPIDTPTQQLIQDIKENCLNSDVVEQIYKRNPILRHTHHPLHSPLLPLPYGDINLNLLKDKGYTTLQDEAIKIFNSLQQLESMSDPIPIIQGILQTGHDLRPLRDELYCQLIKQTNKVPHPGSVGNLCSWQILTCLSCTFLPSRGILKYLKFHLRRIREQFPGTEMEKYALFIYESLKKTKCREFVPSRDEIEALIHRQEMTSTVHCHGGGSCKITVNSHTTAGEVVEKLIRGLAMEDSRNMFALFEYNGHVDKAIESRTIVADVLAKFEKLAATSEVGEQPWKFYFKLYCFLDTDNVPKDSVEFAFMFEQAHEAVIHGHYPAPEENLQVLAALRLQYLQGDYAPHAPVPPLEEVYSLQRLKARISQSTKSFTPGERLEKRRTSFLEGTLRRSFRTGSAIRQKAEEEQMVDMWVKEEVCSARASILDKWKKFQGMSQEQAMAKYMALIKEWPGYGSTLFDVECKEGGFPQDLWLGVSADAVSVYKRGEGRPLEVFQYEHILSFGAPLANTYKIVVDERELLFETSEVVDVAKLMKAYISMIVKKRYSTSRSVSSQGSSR

| effect of a mutation on the interaction | Variant |
| --- | --- |
| disrupting interaction | P772A |
